Consider one substance from patent US6087166.

What all share (assay): cell_activity
For data set [1], the system named is TetR-FF (tTA3) (/ HSV fusion). The settings on record: relative to tTA; -Tc 102828, +Tc 27.
Data set [2] deals with TetR-FFF (tTA2) (/ HSV fusion). The following applies: relative to tTA; -Tc 259556, +Tc 33.
The test system of data set [3] is TetR-FFFF (tTA1) (/ HSV fusion). The following applies: relative to tTA; -Tc 607264, +Tc 33.
For data set [4], the system named is TetR-FG (tTA7) (/ HSV fusion). The following applies: relative to tTA; -Tc 88, +Tc 24.
The test system of data set [5] is TetR-FGY (tTA5) (/ HSV fusion). The settings on record: relative to tTA; -Tc 12080, +Tc 16.
For data set [6], the system named is TetR-GF (tTA6) (/ HSV fusion). The settings on record: relative to tTA; -Tc 1500, +Tc 28.
In data set [7] the test system is TetR-GFY (tTA4) (/ HSV fusion). The following applies: relative to tTA; -Tc 37217, +Tc 25.
The subject of data set [8] is TetR-VP16 (tTA) (/ HSV fusion). The settings on record: luciferase -Tc 265410, +Tc 20.

With “PhCMV*-1 promoter (tet operators, luciferase reporter in HeLa X1/6)”, the activity in data set [1] amounted to 39%; in data set [2] it was 98%; in data set [3], 230%; in data set [4], 0.03%; in data set [5], 4.6%; in data set [6], 0.6%. Further, the activity turned out to be 14% in data set [7] and 100% in data set [8].
